Test results reported in patent publication US20230051715A1 (MABWELL THERAPEUTICS, published 2023).

T1: full-length human C1s (produced in house) (human, UniProt P09871 16-688)
T1 construct: Called full-length; Partly auto-cleaved at R422-I423 on blots; also called HuC1s; Hu C1s
T1 sequence: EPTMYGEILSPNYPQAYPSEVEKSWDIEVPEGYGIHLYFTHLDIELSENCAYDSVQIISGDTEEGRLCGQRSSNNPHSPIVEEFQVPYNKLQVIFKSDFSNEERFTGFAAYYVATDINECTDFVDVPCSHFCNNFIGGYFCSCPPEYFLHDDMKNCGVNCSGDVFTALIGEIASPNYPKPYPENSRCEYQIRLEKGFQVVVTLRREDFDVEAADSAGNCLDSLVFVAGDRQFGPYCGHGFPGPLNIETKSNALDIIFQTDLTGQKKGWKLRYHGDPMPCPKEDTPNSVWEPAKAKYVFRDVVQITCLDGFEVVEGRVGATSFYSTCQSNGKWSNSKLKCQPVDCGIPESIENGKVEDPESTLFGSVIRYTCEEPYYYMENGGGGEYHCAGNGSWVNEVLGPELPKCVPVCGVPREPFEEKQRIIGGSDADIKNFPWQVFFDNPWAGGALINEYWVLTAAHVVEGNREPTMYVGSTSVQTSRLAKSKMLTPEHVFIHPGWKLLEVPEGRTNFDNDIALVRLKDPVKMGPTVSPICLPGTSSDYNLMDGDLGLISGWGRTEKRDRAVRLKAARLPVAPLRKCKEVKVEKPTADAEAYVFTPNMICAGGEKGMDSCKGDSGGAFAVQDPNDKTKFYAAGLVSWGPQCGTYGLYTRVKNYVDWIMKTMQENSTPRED

T2: human C1s mutant M8 (E351A) (human, UniProt P09871 16-688)
T2 construct: The entry is the mutant itself
T2 sequence: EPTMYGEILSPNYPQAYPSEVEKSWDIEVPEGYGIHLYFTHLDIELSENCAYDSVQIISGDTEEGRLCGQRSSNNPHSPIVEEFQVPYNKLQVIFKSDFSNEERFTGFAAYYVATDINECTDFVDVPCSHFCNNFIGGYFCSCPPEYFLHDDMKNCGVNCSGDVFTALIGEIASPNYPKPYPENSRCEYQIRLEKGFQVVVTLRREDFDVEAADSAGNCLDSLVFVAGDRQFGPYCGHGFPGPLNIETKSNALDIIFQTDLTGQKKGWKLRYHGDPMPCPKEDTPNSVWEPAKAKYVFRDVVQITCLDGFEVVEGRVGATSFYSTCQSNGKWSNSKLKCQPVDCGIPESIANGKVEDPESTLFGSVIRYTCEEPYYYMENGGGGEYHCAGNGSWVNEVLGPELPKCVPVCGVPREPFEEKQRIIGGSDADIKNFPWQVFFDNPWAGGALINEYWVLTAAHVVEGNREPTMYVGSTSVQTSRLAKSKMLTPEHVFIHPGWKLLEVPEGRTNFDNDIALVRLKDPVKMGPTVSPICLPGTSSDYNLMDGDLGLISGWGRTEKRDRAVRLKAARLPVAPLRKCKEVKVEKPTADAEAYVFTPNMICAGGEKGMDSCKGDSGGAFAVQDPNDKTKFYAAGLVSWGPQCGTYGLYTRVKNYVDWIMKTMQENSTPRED

B1: Anti-C1s antibody 2-8 (antibody, V domains shown)
VH: EVQLQQSGAELVRPGALVKLSCKASGFNIKEYYMHWVKQRPEQGLEWIGWIDPENGDTIYDPKFQGKASITADTSSNTAYLQLSSLTSEDTAVYYCARSRLFFAYWGQGTLVTVSA
VL: DIVMTQSHKFMSTSVGDRVSFTCKASQDVRTAVDWYQQKPGQSPKLLIYSASYRYTGVPDRFTGTGSGTDFTFTISSVQAEDLAVYFCQQQYTTPYTFGGGTKLEIKT
notes: the HC/LC entries may hold it too; also called clone 2-8
B2: Anti-C1s antibody hz2-7(H1L2) (antibody, V domains shown)
VH: EVQLLESGGGLVQPGGSLRLSCAASGFTFSNYFMNWVRQAPGKGLEWVSEIRLKFTNYATHYADSVKGRFTISRDDSKSTLYLQMNSLRAEDTAVYYCTRDYGSRNGYFDYWGQGTLVTVSS
VL: DIVMTQTPLSLPVTPGEPASISCRSSKSLLHSNGNTFLYWFLQKPGQSPQLLIYRMSNLASGVPDRFSGSGSGTDFTLKISRVEAEDVGVYYCMQHLEYPYTFGGGTKLEIKR
notes: Humanized, human IgG1 / kappa; also called hz2-7(1L2)
B3: Anti-C1s antibody 2-7 (antibody, human IgG1, kappa, V domains shown)
VH: EVKLEESGGGLVPPGGSMKLSCVASGFTFSNYFMNWVRQSPEKGLEWVAEIRLKFTNYATHYAESVEGRFTISRDDSKSSVYLQMNNLRAEDTGIYYCTRDYGSRNGYFDYWGQGTTLTVSS
VL: DIVMTQAAPSVPVTPGESVSISCRSSKSLLHSNGNTFLYWFLQRPGQSPQLLIYRMSNLASGVPDRFSGSGSGTAFTLRVSRVEAEDVGIYYCMQHLEYPYTFGGGTKLEIKT
notes: the HC/LC entries may hold it too; also called clone 2-7
B4: Anti-C1s antibody hz2-8 (H1L2 G80A) (antibody, V domains shown)
VH: QVQLVQSGAEVKKPGASVKVSCKASGFNIKEYYMHWVRQAPEQGLEWMGWIDPENADTIYAQKFQGRVTITADTSTNTAYMELSSLRSEDTAVYYCARSRLFFAYWGQGTLVTVSS
VL: DIQMTQSPKSLSASVGDRVTITCRASQDVRTALDWYQQKPGQSPKLLIYSASYRYSGVPSRFSGSGSGTDFTLTISSLQPEDFATYYCQQQYTTPYTFGQGTKLEIKR
notes: Humanized variant with G80A in HC CDR2 (already in the entry), human IgG1 / kappa
B5: Anti-C1s antibody hz2-8 (H1L2 G80A/T82A) (antibody, V domains shown)
VH: QVQLVQSGAEVKKPGASVKVSCKASGFNIKEYYMHWVRQAPEQGLEWMGWIDPENADAIYAQKFQGRVTITADTSTNTAYMELSSLRSEDTAVYYCARSRLFFAYWGQGTLVTVSS
VL: DIQMTQSPKSLSASVGDRVTITCRASQDVRTALDWYQQKPGQSPKLLIYSASYRYSGVPSRFSGSGSGTDFTLTISSLQPEDFATYYCQQQYTTPYTFGQGTKLEIKR
notes: Humanized variant with G80A and T82A in HC CDR2 (already in the entry), human IgG1 / kappa

biological target: T1, full-length human C1s (produced in …); test: ELISA, plate coated with 200 ng/well full-length HuC1s, OD450nm
Procedure: (§1) ELISA was carried out by first coating 96-well plates with 200 ng/well of full-length or truncated C1s proteins overnight. The next morning, plates were blocked with SuperBlock T20 blocking buffer (Thermo Scientific 37536) for 1 h with gentle shaking. Then, various concentrations of anti-C1s antibodies diluted in SuperBlock T20 blocking buffer were added to the plates and incubated for 1 h with gentle shaking. Mouse IgG (Sigma-Aldrich 15381) and human IgG1 (BioXCell BP0297) were used as negative controls. The plates were washed before incubating with HRP conjugated secondary antibodies diluted in SuperBlock T20 blocking buffer (goat anti-mouse IgG (H+L) cross-adsorbed secondary antibody HRP (Invitrogen G-21040) or goat anti-human IgG antibody, HRP conjugate (Millipore AP309P)) for 1 h with gentle shaking. At last, the plates were washed and color developed with ELISA liquid HRP substrate (Sigma-Aldrich), followed by stopping the reaction with addition of 1M H₂SO₄ in the same volume as the ELISA liquid substrate. Bound antibody was measured by absorbance at OD₄₅₀ₙₘ.

Binder	EC50
B1	8 ng/mL
B2	5 ng/mL
B3	6 ng/mL

biological target: T2, human C1s mutant M8 (E351A); test: ELISA, plate coated with human C1s mutant M8: E351A, OD450nm
Procedure: as §1
Binding of anti-C1s antibodies to mutants M1-M20 of human C1s was measured by ELISA as described in Example 4, and results are shown in FIGS. 6B-6U. All anti-C1s humanized variants including hz2-7(H1L2), hz2-8(H1L2 G80A) and hz2-8(H1L2 G80A/T82A) maintained strong binding properties to the majority (16 out of 20) of C1s mutants including M1 (FIG. 6B), M2 (FIG. 6C), M3 (FIG. 6D). M4 (FIG. 6E), M7 (FIG. 6H), M8 (FIG. 6I), M10 (FIG. 6K), M11 (FIG. 6L), M12 (FIG. 6M), M13 (FIG. 6N), M15 (FIG. 6P), M16 (FIG. 6Q), M17 (FIG. 6R), M18 (FIG. 6S), M19 (FIG. 6T) and M20 (FIG. 6U).

Binder	EC50
B2	16 ng/mL
B4	10 ng/mL
B5	11 ng/mL
